Experimental findings from paper PMC2953525, “Subtle Alterations in PCNA-Partner Interactions Severely Impair DNA Replication and Repair” (PLoS Biology, 2010) are described below.

The subject of test [1] is mutated Rad30 PIP peptide. Briefly: Yeast surface display of PCNA, PIP peptide binding by flow cytometry. To be noted: peptide with the two conserved phenylalanines mutated to alanine. As for the experimental part:
(§1) Briefly, EBY100 transformed with plasmid pCTCON-PCNA were grown in SDCAA media to logarithmic phase and 2×10^6 of cells were washed, resuspended in SGCAA induction media, and grown at 20°C with shaking for an additional 18 h. Induced cells (1×10^6) were collected by centrifugation, washed with PBSF (PBS+ 1 g/L BSA), and incubated for 1 h at 25°C with mouse α-Myc antibodies (Santa Cruz Biotechnology, 1 µl/50 µl PBSF) and 100–400 µM of biotinylated PIP peptide (Peptron, see Figure S1 for peptide sequences). […] The labeled cells were washed, resuspended with PBSF, and analyzed by flow cytometry (FACS Calibur, BD).
(§2) Supplementary file pbio.1000507.s003.pdf: Figure S3 Yeast surface display of PCNA. […] Expression is detected through fluorescent antibody binding to the c-Myc epitope tag (light blue) while binding of the biotinylated PIP peptide (orange) is detected using fluorescently-labeled streptavidin (green). […] The specificity of PCNA binding for PIP peptides was detected following incubation with biotinylated PIP peptide derived from Rad30 (B and D) and mutated Rad30 in which the two conserved phenylalanine residues of the PIP peptide are mutated to alanine (C), followed by incubation with allophycocyanin (APC)-labeled streptavidin (y-axis). […]

For a further test, the target named is Ung1 PIP peptide. Briefly: SPR analysis of PCNA binding to PIP peptide. On the set-up: species or system yeast. Conditions: PCNA immobilized, peptide 5-5,000 nM, ProteOn XPR36; read-out: Binding affinity for Ung1 PIP peptide (SPR). The text has this: To quantify differences in binding affinities of the PCNA mutants relative to the WT, we characterized four PCNA mutants with increased affinity for PIP peptides derived from Rad30, Pol32, Msh6, and Ung1 partners using SPR. These mutants were overexpressed in E. coli, purified by affinity chromatography, and immobilized on an SPR sensor chip for binding characterization. SPR binding analysis enabled direct and sensitive measurement of interaction affinities relative to the Y2H system and indicated an up to 8-fold increase in binding affinity for the different PIP peptides, relative to WT PCNA (Table 1). Such analysis allowed the detection of a significant decrease in the Rad30 PIP peptide dissociation rate in the Pol30-Rad30E9p mutant relative to the WT, indicating a ∼9-fold increase in the lifetime of the PCNA-Rad30 complex (see Table 1). Collectively the ELISA, Y2H, and SPR assays validated and quantified the increase in mutant PCNA binding affinities, relative to WT PCNA.
Protein interaction assays were carried out using the ProteOn XPR36 (Bio-Rad) instrument. WT or PCNA mutants (0.4 to 5.2 fmol) were immobilized on the surface of a GLM sensor chip by a carbodiimide-activated succinimide-coupling method, as specified by the manufacturer. All SPR experiments were performed by flowing 150 µl of the target peptide at a flow rate of 30 µl/min onto the PCNA-bound chip. Different concentrations (5–5,000 nM) of PIP peptides (Table 1) were injected over the PCNA chip, and binding parameters were determined using ProteOn XPR36 software (Bio-Rad). The ligand (PCNA) and analyte (peptide) buffers were PBST and 150 mM NaCl, 1 mM EDTA, 0.01% Tween-80, 30 mM Hepes, pH 7.5, respectively.

Another test has as its target T1, pol30-Msh6E2 (yeast, UniProt P15873 1-258, IDCL DIDADFLKIEEL to DYDRDMLKISEL).
T1 construct: PCNA (POL30), yeast; source: yeast two-hybrid fusion (pAD-GAL4, strain YRG2)
T1 sequence: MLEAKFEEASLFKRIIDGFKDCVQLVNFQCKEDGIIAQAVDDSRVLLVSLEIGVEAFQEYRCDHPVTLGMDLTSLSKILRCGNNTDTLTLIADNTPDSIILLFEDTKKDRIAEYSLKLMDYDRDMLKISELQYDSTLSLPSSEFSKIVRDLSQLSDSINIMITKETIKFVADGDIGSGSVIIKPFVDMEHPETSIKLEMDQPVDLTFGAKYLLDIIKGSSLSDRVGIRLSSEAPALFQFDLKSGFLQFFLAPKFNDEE
Description: two-hybrid; pAD-GAL4-PCNA WT or mutant (called bait) and pBD-GAL4-partner (called prey) in strain YRG2; 10-fold serial dilutions spotted on SC-Leu-Trp-His plates, 30°C, 3 d; growth similar to WT PCNA is denoted 1. Conditions: partners not purified.

In the next test the target is T2, pol30-Msh6E6 (yeast, UniProt P15873 1-258, IDCL DIDADFLKIEEL to DYDKDLLKIIEL).
T2 construct: PCNA (POL30), yeast; source: yeast two-hybrid fusion (pAD-GAL4, strain YRG2)
T2 sequence: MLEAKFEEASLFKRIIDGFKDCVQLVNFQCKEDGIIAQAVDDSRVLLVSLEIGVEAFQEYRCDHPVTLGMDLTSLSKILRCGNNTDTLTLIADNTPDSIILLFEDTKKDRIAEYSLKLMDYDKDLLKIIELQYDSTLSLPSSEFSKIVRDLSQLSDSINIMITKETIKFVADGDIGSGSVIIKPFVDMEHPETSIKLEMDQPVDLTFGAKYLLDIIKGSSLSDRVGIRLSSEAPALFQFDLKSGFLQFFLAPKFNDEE
The description is as above. To be noted: partners not purified.

Another test deals with T3, pol30-Pol32E9 (yeast, UniProt P15873 1-258, IDCL DIDADFLKIEEL to DNDVDSLKIIEL).
T3 construct: PCNA (POL30), yeast; source: yeast two-hybrid fusion (pAD-GAL4, strain YRG2)
T3 sequence: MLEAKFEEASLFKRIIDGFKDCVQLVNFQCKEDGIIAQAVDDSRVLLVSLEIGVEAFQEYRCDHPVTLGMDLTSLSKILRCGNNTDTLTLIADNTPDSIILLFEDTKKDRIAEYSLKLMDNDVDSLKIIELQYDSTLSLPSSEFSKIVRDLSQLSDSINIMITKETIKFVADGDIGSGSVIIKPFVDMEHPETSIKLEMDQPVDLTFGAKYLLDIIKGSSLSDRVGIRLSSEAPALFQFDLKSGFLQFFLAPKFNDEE
The test is described as above. To be noted: partners not purified.

In a further test the test system is Rad30 PIP peptide. Briefly: Yeast surface display of PCNA, PIP peptide binding by flow cytometry. To be noted: biotinylated peptide, APC-streptavidin, compared with WT PCNA / Rad30 PIP peptide. As for the experimental part:
as §1, §2

For “POL30: wild-type yeast PCNA (POL30), IDCL sequence DIDADFLKIEEL”, the “binding to a mutated Rad30 PIP peptide (yeast surface display)” value in test [1] is “dramatic reduction in binding affinity”. The Kd at Ung1 PIP peptide was 1200 nM.

B1: Rad27 (natural protein, yeast, UniProt P26793 1-382, looked up)
chain: MGIKGLNAIISEHVPSAIRKSDIKSFFGRKVAIDASMSLYQFLIAVRQQDGGQLTNEAGETTSHLMGMFYRTLRMIDNGIKPCYVFDGKPPDLKSHELTKRSSRRVETEKKLAEATTELEKMKQERRLVKVSKEHNEEAQKLLGLMGIPYIIAPTEAEAQCAELAKKGKVYAAASEDMDTLCYRTPFLLRHLTFSEAKKEPIHEIDTELVLRGLDLTIEQFVDLCIMLGCDYCESIRGVGPVTALKLIKTHGSIEKIVEFIESGESNNTKWKIPEDWPYKQARMLFLDPEVIDGNEINLKWSPPKEKELIEYLCDDKKFSEERVKSGISRLKKGLKSGIQGRLDGFFQVVPKTKEQLAAAAKRAQENKKLNKNKNKVTKGRR
notes: Rad27 (endonuclease), yeast; also called pBD-Rad27; source: yeast two-hybrid fusion (pBD-GAL4, strain YRG2)
As for B1, the “fold change in affinity relative to WT PCNA (Y2H)” value with pol30-Msh6E2 worked out at 1.3 fold; with pol30-Msh6E6 it was 1.3 fold; with pol30-Pol32E9, 1.2 fold.

B2: pol30-79: previously studied PCNA mutant with decreased partner binding, IDCL sequence DIDADFAKAEEL (protein)
chain: MLEAKFEEASLFKRIIDGFKDCVQLVNFQCKEDGIIAQAVDDSRVLLVSLEIGVEAFQEYRCDHPVTLGMDLTSLSKILRCGNNTDTLTLIADNTPDSIILLFEDTKKDRIAEYSLKLMDIDADFAKAEELQYDSTLSLPSSEFSKIVRDLSQLSDSINIMITKETIKFVADGDIGSGSVIIKPFVDMEHPETSIKLEMDQPVDLTFGAKYLLDIIKGSSLSDRVGIRLSSEAPALFQFDLKSGFLQFFLAPKFNDEE
modifications: left off: Gal4 activation domain, end not stated, kept
Turning to B2, in the test with Rad30 PIP peptide, the “binding to the Rad30 PIP peptide (yeast surface display)” value is on record as “dramatic reduction in binding affinity”.
